In article PMC6769022, “Identification of an adhesive interface for the non-clustered δ1 protocadherin-1 involved in respiratory diseases” (Communications Biology, 2019):
Where a chain is given by its changes, count along the chain named. In names and notes the source's numbering stands.

B1: PCDH1 EC1-7Fc (Fc fusion, human, UniProt Q08174 58-852, looked up)
chain: TRVVYKVPEEQPPNTLIGSLAADYGFPDVGHLYKLEVGAPYLRVDGKTGDIFTTETSIDREGLRECQNQLPGDPCILEFEVSITDLVQNGSPRLLEGQIEVQDINDNTPNFASPVITLAIPENTNIGSLFPIPLASDRDAGPNGVASYELQAGPEAQELFGLQVAEDQEEKQPQLIVMGNLDRERWDSYDLTIKVQDGGSPPRASSALLRVTVLDTNDNAPKFERPSYEAELSENSPIGHSVIQVKANDSDQGANAEIEYTFHQAPEVVRRLLRLDRNTGLITVQGPVDREDLSTLRFSVLAKDRGTNPKSARAQVVVTVKDMNDNAPTIEIRGIGLVTHQDGMANISEDVAEETAVALVQVSDRDEGENAAVTCVVAGDVPFQLRQASETGSDSKKKYFLQTTTPLDYEKVKDYTIEIVAVDSGNPPLSSTNSLKVQVVDVNDNAPVFTQSVTEVAFPENNKPGEVIAEITASDADSGSNAELVYSLEPEPAAKGLFTISPETGEIQVKTSLDREQRESYELKVVAADRGSPSLQGTATVLVNVLDCNDNDPKFMLSGYNFSVMENMPALSPVGMVTVIDGDKGENAQVQLSVEQDNGDFVIQNGTGTILSSLSFDREQQSTYTFQLKAVDGGVPPRSAYVGVTINVLDENDNAPYITAPSNTSHKLLTPQTRLGETVSQVAAEDFDSGVNAELIYSIAGGNPYGLFQIGSHSGAITLEKEIERRHHGLHRLVVKVSDRGKPPRYGTALVHLYVNETLANRTLLETLLGHSLDTPLDIDIAGDPEYERSKQRGN
notes: Protocadherin-1 (PCDH1), human, repeats EC1 to EC7 (full-length extracellular domain); native signal peptide in the construct; Vector CMV:N1-Fc; Fc detected with anti-human IgG; also called human Protocadherin-1 full-length extracellular domain, Fc-tagged; wild-type PCDH1 EC1-7Fc; source: HEK293T, transfected, secreted into serum-free medium, captured on protein G Dynabeads
B2: PCDH1 EC1-5 C375S C548S (domain or fragment)
chain: MTRVVYKVPEEQPPNTLIGSLAADYGFPDVGHLYKLEVGAPYLRVDGKTGDIFTTETSIDREGLRECQNQLPGDPCILEFEVSITDLVQNGSPRLLEGQIEVQDINDNTPNFASPVITLAIPENTNIGSLFPIPLASDRDAGPNGVASYELQAGPEAQELFGLQVAEDQEEKQPQLIVMGNLDRERWDSYDLTIKVQDGGSPPRASSALLRVTVLDTNDNAPKFERPSYEAELSENSPIGHSVIQVKANDSDQGANAEIEYTFHQAPEVVRRLLRLDRNTGLITVQGPVDREDLSTLRFSVLAKDRGTNPKSARAQVVVTVKDMNDNAPTIEIRGIGLVTHQDGMANISEDVAEETAVALVQVSDRDEGENAAVTSVVAGDVPFQLRQASETGSDSKKKYFLQTTTPLDYEKVKDYTIEIVAVDSGNPPLSSTNSLKVQVVDVNDNAPVFTQSVTEVAFPENNKPGEVIAEITASDADSGSNAELVYSLEPEPAAKGLFTISPETGEIQVKTSLDREQRESYELKVVAADRGSPSLQGTATVLVNVLDSNDNDLEHHHHHH
B3: PCDH1 EC1-5 C375S C548S V115R (domain or fragment)
chain: B2 chain with V116R
B4: Hs PCDH1 EC1-4bc (domain or fragment, human)
chain: TRVVYKVPEEQPPNTLIGSLAADYGFPDVGHLYKLEVGAPYLRVDGKTGDIFTTETSIDREGLRECQNQLPGDPCILEFEVSITDLVQNGSPRLLEGQIEVQDINDNTPNFASPVITLAIPENTNIGSLFPIPLASDRDAGPNGVASYELQAGPEAQELFGLQVAEDQEEKQPQLIVMGNLDRERWDSYDLTIKVQDGGSPPRASSALLRVTVLDTNDNAPKFERPSYEAELSENSPIGHSVIQVKANDSDQGANAEIEYTFHQAPEVVRRLLRLDRNTGLITVQGPVDREDLSTLRFSVLAKDRGTNPKSARAQVVVTVKDMNDNAPTIEIRGIGLVTHQDGMANISEDVAEETAVALVQVSDRDEGENAAVTCVVAGDVPFQLRQASETGSDSKKKYFLQTTTPLDYEKVKDYTIEIVAVDSGNPPLSSTNSLKVQVVDVNDNA
notes: Protocadherin-1 (PCDH1), human, repeats EC1 to EC4, without signal peptide; also called PCDH1 EC1-4 (bacterially produced, wild type)
B5: Hs PCDH1 EC1-4mc (domain or fragment, human)
chain: B4 chain
modifications: sugars observed at N248 (N-linked) and S430 (O-linked) in the structure
notes: Protocadherin-1 (PCDH1), human, repeats EC1 to EC4; Vector CMV:N1-His; also called PCDH1 EC1-4His
B6: PCDH1 EC1-4Fc (Fc fusion, human)
chain: B4 chain
notes: Protocadherin-1 (PCDH1), human, repeats EC1 to EC4; native signal peptide in the construct; Vector CMV:N1-Fc; PDB 6MGA holds the His-tagged mammalian EC1-4 fragment; source: HEK293T, transfected, secreted into serum-free medium, captured on protein G Dynabeads
B7: PCDH1 EC1-7Fc C375S C548S (Fc fusion, human, UniProt Q08174 58-852, looked up)
chain: B1 chain with C375S, C548S
notes: Protocadherin-1 (PCDH1), human, repeats EC1 to EC7; native signal peptide in the construct; Vector CMV:N1-Fc; source: HEK293T, transfected, secreted into serum-free medium, captured on protein G Dynabeads
B8: PCDH1 EC1-7Fc V115R (Fc fusion, human, UniProt Q08174 58-852, looked up)
chain: B1 chain with V115R
notes: as for B7
B9: PCDH1 EC1-4 C375S (domain or fragment, human)
chain: B4 chain with C375S
notes: Protocadherin-1 (PCDH1), human, repeats EC1 to EC4, without signal peptide; Parent (wild-type bacterial EC1-4) is in PDB 6BX7; also called bacterially produced PCDH1 EC1-4 C375S

Key:
[1] = target: the molecule itself; experiment: bead aggregation assay; Fc fusions from concentrated HEK293T medium bound to protein G Dynabeads, washed; binding buffer 50 mM TrisHCl pH 7.5, 100 mM NaCl, 10 mM KCl, 0.2% BSA with 2 mM CaCl2; 60 min without motion, then 1 and 2 min rocking; aggregates imaged
[2] = target: the molecule itself; experiment: AUC; sedimentation velocity, 50,000 r.p.m., 20 °C, 20 mM Tris-HCl pH 8.0, 150 mM KCl, 50 mM NaCl, 2 mM CaCl2; dimer to monomers
[3] = target: the molecule itself; experiment: crystal structure; vapor diffusion at 4 °C; one molecule in the asymmetric unit, antiparallel dimers formed by crystal symmetry

Protein	binding result [1]	stoichiometry N [2]	other results
B1	binds		
B2		2	Kd [2]: < 5 µM
B3		2	
B4			binding result [3]: binds
B5			binding result [3]: binds
B6	binds		
B7	binds		
B8	binds		
B9		2	Kd [2]: < 5 µM
